Measurements as given in the supplement of paper PMC10567573.

B1: FAM189A2 (parent)
chain: GSEAAVIPLDLGCTQVTQDGDIPN
B2: ZNF263 (parent)
chain: QRTHTGEKPYKCPECGEIFAHSSN

Variants of: B1
Test: protein stability index of a GFP-peptide fusion (GPS, HEK-293T) (PSI 1-6); higher = more stable
Settings: c terminus: a fixed tail appended
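Further: lentivirally expressed fusions sorted by FACS into six bins by GFP to DsRed ratio, PSI derived from sequencing read proportions per bin multiplied by bin number.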

Variant	protein stability index
GSEAAVIALDLGCTQVTQDGDIPN [P8A]	4.68
GSEAAVICLDLGCTQVTQDGDIPN [P8C]	4.03
GSEAAVIDLDLGCTQVTQDGDIPN [P8D]	4.97
GSEMAVIPLDLGCTQVTQDGDIPN [A4M]	4.81
GSEDAVIPLDLGCTQVTQDGDIPN [A4D]	5.61
GSEFAVIPLDLGCTQVTQDGDIPN [A4F]	4.44
GSEVAVIPLDLGCTQVTQDGDIPN [A4V]	4.97
GSELAVIPLDLGCTQVTQDGDIPN [A4L]	5.34
GSEGAVIPLDLGCTQVTQDGDIPN [A4G]	5.29
GSEWAVIPLDLGCTQVTQDGDIPN [A4W]	4.53
GSENAVIPLDLGCTQVTQDGDIPN [A4N]	5.58
GSERAVIPLDLGCTQVTQDGDIPN [A4R]	5.4
GSEIAVIPLDLGCTQVTQDGDIPN [A4I]	4.37
GSEPAVIPLDLGCTQVTQDGDIPN [A4P]	5.53
GSEQAVIPLDLGCTQVTQDGDIPN [A4Q]	5.36
GSESAVIPLDLGCTQVTQDGDIPN [A4S]	5.24
GSEEAVIPLDLGCTQVTQDGDIPN [A4E]	5.57
GSEKAVIPLDLGCTQVTQDGDIPN [A4K]	5.49
GSETAVIPLDLGCTQVTQDGDIPN [A4T]	5.27
GSEYAVIPLDLGCTQVTQDGDIPN [A4Y]	4.79
GSECAVIPLDLGCTQVTQDGDIPN [A4C]	4.74
GSEHAVIPLDLGCTQVTQDGDIPN [A4H]	4.7
GSKAAVIPLDLGCTQVTQDGDIPN [E3K]	5.35

Variant	protein stability index
GSWAAVIPLDLGCTQVTQDGDIPN [E3W]	2.96
GSHAAVIPLDLGCTQVTQDGDIPN [E3H]	4.49
GSIAAVIPLDLGCTQVTQDGDIPN [E3I]	3.58
GSAAAVIPLDLGCTQVTQDGDIPN [E3A]	5.2
GSRAAVIPLDLGCTQVTQDGDIPN [E3R]	5.08
GSNAAVIPLDLGCTQVTQDGDIPN [E3N]	5.1
GSDAAVIPLDLGCTQVTQDGDIPN [E3D]	5.38
GSTAAVIPLDLGCTQVTQDGDIPN [E3T]	5.11
GSMAAVIPLDLGCTQVTQDGDIPN [E3M]	4.45
GSGAAVIPLDLGCTQVTQDGDIPN [E3G]	5.11
GSYAAVIPLDLGCTQVTQDGDIPN [E3Y]	4.18
GSPAAVIPLDLGCTQVTQDGDIPN [E3P]	5.23
GSFAAVIPLDLGCTQVTQDGDIPN [E3F]	4.14
GSSAAVIPLDLGCTQVTQDGDIPN [E3S]	5.1
GSQAAVIPLDLGCTQVTQDGDIPN [E3Q]	5.3
GSVAAVIPLDLGCTQVTQDGDIPN [E3V]	4.49
GSCAAVIPLDLGCTQVTQDGDIPN [E3C]	4.83
GSLAAVIPLDLGCTQVTQDGDIPN [E3L]	4.54
GSEAANIPLDLGCTQVTQDGDIPN [V6N]	5.44
GSEAAIIPLDLGCTQVTQDGDIPN [V6I]	5.25
GSEAAFIPLDLGCTQVTQDGDIPN [V6F]	4.91
GSEAACIPLDLGCTQVTQDGDIPN [V6C]	5.43
GSEAAWIPLDLGCTQVTQDGDIPN [V6W]	4.92

Variant	protein stability index
GSEAAGIPLDLGCTQVTQDGDIPN [V6G]	5.33
GSEAAAIPLDLGCTQVTQDGDIPN [V6A]	5.5
GSEAARIPLDLGCTQVTQDGDIPN [V6R]	5.57
GSEAAPIPLDLGCTQVTQDGDIPN [V6P]	5.76
GSEAADIPLDLGCTQVTQDGDIPN [V6D]	5.63
GSEAAEIPLDLGCTQVTQDGDIPN [V6E]	5.65
GSEAAQIPLDLGCTQVTQDGDIPN [V6Q]	5.33
GSEAAHIPLDLGCTQVTQDGDIPN [V6H]	5.51
GSEAATIPLDLGCTQVTQDGDIPN [V6T]	5.58
GSEAALIPLDLGCTQVTQDGDIPN [V6L]	5.16
GSEAAMIPLDLGCTQVTQDGDIPN [V6M]	5.25
GSEAASIPLDLGCTQVTQDGDIPN [V6S]	5.58
GSEAAYIPLDLGCTQVTQDGDIPN [V6Y]	5.35
GSEAAKIPLDLGCTQVTQDGDIPN [V6K]	5.71
KSEAAVIPLDLGCTQVTQDGDIPN [G1K]	5.25
SSEAAVIPLDLGCTQVTQDGDIPN [G1S]	5.22
MSEAAVIPLDLGCTQVTQDGDIPN [G1M]	5.33
LSEAAVIPLDLGCTQVTQDGDIPN [G1L]	5.43
CSEAAVIPLDLGCTQVTQDGDIPN [G1C]	4.75
VSEAAVIPLDLGCTQVTQDGDIPN [G1V]	5.2
ASEAAVIPLDLGCTQVTQDGDIPN [G1A]	5.53
ESEAAVIPLDLGCTQVTQDGDIPN [G1E]	5.05
FSEAAVIPLDLGCTQVTQDGDIPN [G1F]	4.84

Variant	protein stability index
DSEAAVIPLDLGCTQVTQDGDIPN [G1D]	5.34
QSEAAVIPLDLGCTQVTQDGDIPN [G1Q]	5.44
ISEAAVIPLDLGCTQVTQDGDIPN [G1I]	4.68
RSEAAVIPLDLGCTQVTQDGDIPN [G1R]	5.24
PSEAAVIPLDLGCTQVTQDGDIPN [G1P]	5.38
YSEAAVIPLDLGCTQVTQDGDIPN [G1Y]	4.26
HSEAAVIPLDLGCTQVTQDGDIPN [G1H]	5.29
NSEAAVIPLDLGCTQVTQDGDIPN [G1N]	5.46
WSEAAVIPLDLGCTQVTQDGDIPN [G1W]	4.31
TSEAAVIPLDLGCTQVTQDGDIPN [G1T]	5.58
GSEAGVIPLDLGCTQVTQDGDIPN [A5G]	5.36
GSEAKVIPLDLGCTQVTQDGDIPN [A5K]	5.19
GSEAYVIPLDLGCTQVTQDGDIPN [A5Y]	4.15
GSEAMVIPLDLGCTQVTQDGDIPN [A5M]	5.01
GSEAIVIPLDLGCTQVTQDGDIPN [A5I]	3.79
GSEAFVIPLDLGCTQVTQDGDIPN [A5F]	4.64
GSEAVVIPLDLGCTQVTQDGDIPN [A5V]	5.08
GSEALVIPLDLGCTQVTQDGDIPN [A5L]	4.57
GSEAQVIPLDLGCTQVTQDGDIPN [A5Q]	5.1
GSEARVIPLDLGCTQVTQDGDIPN [A5R]	5.2
GSEADVIPLDLGCTQVTQDGDIPN [A5D]	5.74
GSEAPVIPLDLGCTQVTQDGDIPN [A5P]	5.68
GSEACVIPLDLGCTQVTQDGDIPN [A5C]	4.9

Variant	protein stability index
GSEASVIPLDLGCTQVTQDGDIPN [A5S]	5.51
GSEAEVIPLDLGCTQVTQDGDIPN [A5E]	5.13
GSEANVIPLDLGCTQVTQDGDIPN [A5N]	5.17
GSEATVIPLDLGCTQVTQDGDIPN [A5T]	5.43
GSEAHVIPLDLGCTQVTQDGDIPN [A5H]	5.2
GSEAWVIPLDLGCTQVTQDGDIPN [A5W]	3.95
GMEAAVIPLDLGCTQVTQDGDIPN [S2M]	4.89
GLEAAVIPLDLGCTQVTQDGDIPN [S2L]	4.77
GYEAAVIPLDLGCTQVTQDGDIPN [S2Y]	4.8
GREAAVIPLDLGCTQVTQDGDIPN [S2R]	5.61
GGEAAVIPLDLGCTQVTQDGDIPN [S2G]	5.03
GIEAAVIPLDLGCTQVTQDGDIPN [S2I]	5.23
GAEAAVIPLDLGCTQVTQDGDIPN [S2A]	5.71
GQEAAVIPLDLGCTQVTQDGDIPN [S2Q]	5.36
GTEAAVIPLDLGCTQVTQDGDIPN [S2T]	5.01
GNEAAVIPLDLGCTQVTQDGDIPN [S2N]	5.52
GFEAAVIPLDLGCTQVTQDGDIPN [S2F]	4.96
GVEAAVIPLDLGCTQVTQDGDIPN [S2V]	4.85
GWEAAVIPLDLGCTQVTQDGDIPN [S2W]	3.93
GDEAAVIPLDLGCTQVTQDGDIPN [S2D]	5.51
GEEAAVIPLDLGCTQVTQDGDIPN [S2E]	5.55
GHEAAVIPLDLGCTQVTQDGDIPN [S2H]	5.25
GCEAAVIPLDLGCTQVTQDGDIPN [S2C]	5.49

Variant	protein stability index
GKEAAVIPLDLGCTQVTQDGDIPN [S2K]	4.64
GPEAAVIPLDLGCTQVTQDGDIPN [S2P]	5.21
GSEAAVGPLDLGCTQVTQDGDIPN [I7G]	5.6
GSEAAVDPLDLGCTQVTQDGDIPN [I7D]	5.93
GSEAAVLPLDLGCTQVTQDGDIPN [I7L]	4.86
GSEAAVFPLDLGCTQVTQDGDIPN [I7F]	4.96
GSEAAVYPLDLGCTQVTQDGDIPN [I7Y]	5.32
GSEAAVNPLDLGCTQVTQDGDIPN [I7N]	5.66
GSEAAVAPLDLGCTQVTQDGDIPN [I7A]	5.57
GSEAAVTPLDLGCTQVTQDGDIPN [I7T]	5.67
GSEAAVHPLDLGCTQVTQDGDIPN [I7H]	5.23
GSEAAVRPLDLGCTQVTQDGDIPN [I7R]	4.98
GSEAAVEPLDLGCTQVTQDGDIPN [I7E]	5.78
GSEAAVVPLDLGCTQVTQDGDIPN [I7V]	5.23
GSEAAVWPLDLGCTQVTQDGDIPN [I7W]	4.79
GSEAAVSPLDLGCTQVTQDGDIPN [I7S]	5.58
GSEAAVQPLDLGCTQVTQDGDIPN [I7Q]	5.24
GSEAAVCPLDLGCTQVTQDGDIPN [I7C]	5.04
GSEAAVKPLDLGCTQVTQDGDIPN [I7K]	5.23
GSEAAVPPLDLGCTQVTQDGDIPN [I7P]	5.47
GSEAAVMPLDLGCTQVTQDGDIPN [I7M]	5.24

Variants of: B2
Test: as above
Settings: c terminus: a fixed tail appended

Variant	protein stability index
QRTHTGEKPYKCPECGEIFAHSIN [S23I]	3.24
QRTHTGEKPYKCPECGEIFAHSVN [S23V]	2.71
QRTHTGEKPYKCPECGEIFAHSRN [S23R]	2.77
QRTHTGEKPYKCPECGEIFAHSMN [S23M]	2.81
QRTHTGEKPYKCPECGEIFAHSTN [S23T]	3.14
QRTHTGEKPYKCPECGEIFAHSKN [S23K]	3.79
QRTHTGEKPYKCPECGEIFAHSHN [S23H]	4.71
QRTHTGEKPYKCPECGEIFAHSWN [S23W]	2.36
QRTHTGEKPYKCPECGEIFAHSNN [S23N]	3.34
QRTHTGEKPYKCPECGEIFAHSLN [S23L]	2.75
QRTHTGEKPYKCPECGEIFAHSFN [S23F]	2.81
QRTHTGEKPYKCPECGEIFAHSCN [S23C]	5.55
QRTHTGEKPYKCPECGEIFAHSQN [S23Q]	3.31
QRTHTGEKPYKCPECGEIFAHSDN [S23D]	3.5
QRTHTGEKPYKCPECGEIFAHSEN [S23E]	4.67
QRTHTGEKPYKCPECGEIFAHSGN [S23G]	3.23
QRTHTGEKPYKCPECGEIFAHSAN [S23A]	3.61
QRTHTGEKPYKCPECGEIFAHSPN [S23P]	2.72
QRTHTGEKPYKCPECGEIFAHSYN [S23Y]	2.73
QRTHTGEKPYKCPECGEIFAHSSR [N24R]	2.39
QRTHTGEKPYKCPECGEIFAHSSA [N24A]	3.74
QRTHTGEKPYKCPECGEIFAHSSQ [N24Q]	3.65
QRTHTGEKPYKCPECGEIFAHSSP [N24P]	2.61
QRTHTGEKPYKCPECGEIFAHSSD [N24D]	3.88
QRTHTGEKPYKCPECGEIFAHSSK [N24K]	3.99
QRTHTGEKPYKCPECGEIFAHSSL [N24L]	2.95

Variant	protein stability index
QRTHTGEKPYKCPECGEIFAHSSM [N24M]	2.75
QRTHTGEKPYKCPECGEIFAHSSH [N24H]	3.49
QRTHTGEKPYKCPECGEIFAHSSF [N24F]	2.74
QRTHTGEKPYKCPECGEIFAHSSY [N24Y]	2.96
QRTHTGEKPYKCPECGEIFAHSSC [N24C]	5.06
QRTHTGEKPYKCPECGEIFAHSSG [N24G]	3.04
QRTHTGEKPYKCPECGEIFAHSSV [N24V]	2.61
QRTHTGEKPYKCPECGEIFAHSST [N24T]	3.54
QRTHTGEKPYKCPECGEIFAHSSE [N24E]	3.15
QRTHTGEKPYKCPECGEIFAHSSS [N24S]	3.16
QRTHTGEKPYKCPECGEIFAHSSW [N24W]	2.85
QRTHTGEKPYKCPECGEIFAHSSI [N24I]	2.65
QRTHTGEKPYKCPECGEIFAHMSN [S22M]	2.49
QRTHTGEKPYKCPECGEIFAHTSN [S22T]	2.92
QRTHTGEKPYKCPECGEIFAHVSN [S22V]	2.91
QRTHTGEKPYKCPECGEIFAHWSN [S22W]	3.31
QRTHTGEKPYKCPECGEIFAHLSN [S22L]	2.39
QRTHTGEKPYKCPECGEIFAHISN [S22I]	2.52
QRTHTGEKPYKCPECGEIFAHPSN [S22P]	2.88
QRTHTGEKPYKCPECGEIFAHRSN [S22R]	2.38
QRTHTGEKPYKCPECGEIFAHGSN [S22G]	2.92
QRTHTGEKPYKCPECGEIFAHHSN [S22H]	3.87
QRTHTGEKPYKCPECGEIFAHYSN [S22Y]	2.71
QRTHTGEKPYKCPECGEIFAHNSN [S22N]	3.38
QRTHTGEKPYKCPECGEIFAHQSN [S22Q]	2.81
QRTHTGEKPYKCPECGEIFAHKSN [S22K]	3.16
